The values that follow come from US20240117030A1 (Pfizer, published 2024).

Holding throughout (experiment): cell-based or functional assay
Experiment [1] deals with T1, human IL-4 (human, UniProt P05112 25-153).
T1 sequence (looked up): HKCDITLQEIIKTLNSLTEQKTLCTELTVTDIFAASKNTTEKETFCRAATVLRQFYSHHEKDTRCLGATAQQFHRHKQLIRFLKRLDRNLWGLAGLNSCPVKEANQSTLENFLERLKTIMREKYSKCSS

Experiment [2] deals with T2, IL-33 (mm2), human IL-33 variant with all four cysteines changed to serine (human, UniProt O95760 112-270, limits assumed).
T2 sequence (looked up): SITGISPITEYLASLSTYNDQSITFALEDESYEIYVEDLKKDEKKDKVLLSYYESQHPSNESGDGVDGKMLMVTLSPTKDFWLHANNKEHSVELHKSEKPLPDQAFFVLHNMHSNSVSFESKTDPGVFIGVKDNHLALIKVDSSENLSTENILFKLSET

For experiment [3], the target named is human IL-13 (human, UniProt P35225 35-146).
Sequence of human IL-13 (P35225 35-146 limits assumed): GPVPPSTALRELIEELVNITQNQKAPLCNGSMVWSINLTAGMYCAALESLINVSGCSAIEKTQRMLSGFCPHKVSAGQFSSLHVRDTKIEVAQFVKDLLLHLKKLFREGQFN
For experiment [4], the target named is T3, recombinant human IL-33 (wild type, Ser112-Thr270) (human, UniProt O95760 112-270).
T3 sequence (looked up): T2 sequence (looked up) with S97C, S116C, S121C, S148C

Changes are numbered by the printed parent chain.

B1: IL13433-0005 (other)
heavy: EVTLRESGPALVKPTQTLTLTCTFSGFSLSNFGEGLSWIRQPPGKGLEWLAHIYWDDDKRYNPSLKSRLTISKDTSRNQVVLTMTNMDPVDTATYYCARRETVFYWYFDVWGQGTTVTVSSASTKGPSVFPEAPSSKSTSGGTAALGCLVKDYFPEPVTVSWNSGALTSGVHTFPAVLQSSGLYSLGSVVTVPSSSLGTQTYICNVNHKPSNTKVDKKVEPKSCDKTHTCPPCPAPEAAGAPSVFLFPPKPKDTLMISRTPEVTCVVVDVSHEDPEVKFNWYVDGVEVHNAKTKPREEQYNSTYRVVSVLTVLHQDWLNGKEYKCKVSNKALPAPIEKTISKAKGQPREPQVYTLPPCREEMTKNQVSLSCAVKGFYPSDIAVEWESNGQPENNYKTTPPVLDSDGSFFLVSKLTVDKSRWQQGNVFSCSVMHEALHNHYTQKSLSLSPGK
chain 1: DIQMTQSPSSLSASVGDRVTITCKASQNINKHLDWYQQKPGKAPKLLIYFTNNLQTGVPSRFSGSGSGTDFTLTISSLQPEDFATYYCFQYNQGWTFGGGTKVEIKRTVAAPSVFIFPPSDEQLKSGTASVVCLLNNFYPREAKVQWKVDNALQSGNSQESVTEQDSKDSTYSLSSTLTLSKADYEKHKVYACEVTHQGLSSPVTKSFNRGECGGGGSEVQLVESGGGLVQPGGSLRLSCAASGFTFSSYAMSWVRQAPGKGLEWVASISSGDTTYYPDSVKGRFTISRDNAKNSLYLQMNSLRAEDTAVYYCARNEGYYFGLTLWGQGTLVTVSSASTKGPSVFPKAPSSKSTSGGTAALGCLVKDYFPEPVTVSWNSGALTSGVHTFPAVLQSSGLYSLSSSVTVPSSSLGTQTYICNVNHKPSNTKVDKKVEPKSCDKTHTCPPCPAPEAAGAPSVFLFPPKPKDTLMISRTPEVTCVVVDVSHEDPEVKFNWYVDGVEVHNAKTKPREEQYNSTYRVVSVLTVLHQDWLNGKEYKCKVSNKALPAPIEKTISKAKGQPREPQVCTLPPSREEMTKNQVSLWCLVKGFYPSDIAVEWESNGQPENNYKTTPPVLDSDGSFFLYSKLTVDKSRWQQGNVFSCSVMHEALHNHYTQKSLSLSPGK
light 1: DIQMTQSPSSLSASVGDRVTITCKASQSVDEDGDSYMNWYQQKPGKAPKLLIYAASNLESGVPSRFSGSGSGTDFTLTISSLQPEDFATYYCQQSNEDPPTFGGGTKVEIKRTVAAPSVFIFPPSDEQLKSGTASVSCLLNNFYPREAKVQWKVDNALQSGNSQESVTEQDSKDSTYSLKSTLTLSKADYEKHKVYACEVTHQGLSSPVTKSFNRGEC
light 2: B1 light 1 with Q27E, E31H, D32F, D34W, Y36L, M37V, N38H, A54R, P100W, K180D
chain 2: EVQLVESGGGLVQPGGSLRLSCAASGFTFSSYWMYWVRQAPGKGLEWVAAITPNAGEDYYPESVKGRFTISRDNAKNSLYLQMNSLRAEDTAVYYCARGHYYYTSYSLGYWGQGTLVTVSSASTKGPSVFPLAPSSKSTSGGTAALGCLVKDYFPEPVTVSWNSGALTSGVHTFPAVLQSSGLYSLSSVVTVPSSSLGTQTYICNVNHKPSNTKVDKKVEPKSC
Take B1: the “a-hIL-4 bioassay IC50, pM)” value in experiment [1] was 3.2 pM. For the same molecule, in experiment [2], the “a-IL-33 bioassay cys mutant IL33) IC50 (pM)” value is 45 pM. Besides, in experiment [3], the “a-hIL-13 bioassay (IC50, pM)” value amounted to 12.5 pM.

B2: IL13433-1270 (other)
heavy: EVQLVESGGGLVQPGGSLRLSCAASGFTFSSYWMYWVRQAPGKGLEWVAAITPNAGEDYYPESVKGRFTISRDNAKNSLYLQMNSLRAEDTAVYYCARGQYYYTKYSLGYWGQGTLVTVSSASTKGPSVFPKAPSSKSTSGGTAALGCLVKDYFPEPVTVSWNSGALTSGVHTFPAVLQSSGLYSLSSSVTVPSSSLGTQTYICNVNHKPSNTKVDKKVEPKSCDKTHTCPPCPAPEAAGAPSVFLFPPKPKDTLMISRTPEVTCVVVDVSHEDPEVKFNWYVDGVEVHNAKTKPREEQYNSTYRVVSVLTVLHQDWLNGKEYKCKVSNKALPAPIEKTISKAKGQPREPQVCTLPPSREEMTKNQVSLWCLVKGFYPSDIAVEWESNGQPENNYKTTPPVLDSDGSFFLYSKLTVDKSRWQQGNVFSCSVLHEALHSHYTQKSLSLSPGK
chain 1: DIQMTQSPSSLSASVGDRVTITCKASESVDHFGWSLVHWYQQKPGKAPKLLIYRASNLESGVPSRFSGSGSGTDFTLTISSLQPEDFATYYCQQSNEDPWTFGGGTKVEIKRTVAAPSVFIFPPSDEQLKSGTASVVCLLNNFYPREAKVQWKVDNALQSGNSQESVTEQDSKDSTYSLSSTLTLSKADYEKHKVYACEVTHQGLSSPVTKSFNRGECGGGGSEVTLRESGPALVKPTQTLTLTCTFSGFSLSNFGEGLSWIRQPPGKGLEWLAHIYWDDDKRYNPSLKSRLTISKDTSRNQVVLTMTNMDPVDTATYYCARRETVFYWYFDVWGQGTTVTVSSASTKGPSVFPEAPSSKSTSGGTAALGCLVKDYFPEPVTVSWNSGALTSGVHTFPAVLQSSGLYSLGSVVTVPSSSLGTQTYICNVNHKPSNTKVDKKVEPKSCDKTHTCPPCPAPEAAGAPSVFLFPPKPKDTLMISRTPEVTCVVVDVSHEDPEVKFNWYVDGVEVHNAKTKPREEQYNSTYRVVSVLTVLHQDWLNGKEYKCKVSNKALPAPIEKTISKAKGQPREPQVYTLPPCREEMTKNQVSLSCAVKGFYPSDIAVEWESNGQPENNYKTTPPVLDSDGSFFLVSKLTVDKSRWQQGNVFSCSVLHEALHSHYTQKSLSLSPGK
light 1: DIQMTQSPSSLSASVGDRVTITCRASQPIHNHLDWYQQKPGKAPKLLIYFGKNLQEGVPSRFSGSGSGTDFTLTISSLQPEDFATYYCFQYKKGWSFGGGTKVEIKRTVAAPSVFIFPPSDEQLKSGTASVSCLLNNFYPREAKVQWKVDNALQSGNSQESVTEQDSKDSTYSLDSTLTLSKADYEKHKVYACEVTHQGLSSPVTKSFNRGEC
light 2: B1 light 1 with K24R, D32E, E97K
chain 2: EVQLVESGGGLVQPGGSLRLSCAASGFTFSSYAMSWVRQAPGKGLEWVASISSGDTTYYPDSVKGRFTISRDNAKNSLYLQMNSLRAEDTAVYYCARNEGYYFGLTLWGQGTLVTVSSASTKGPSVFPLAPSSKSTSGGTAALGCLVKDYFPEPVTVSWNSGALTSGVHTFPAVLQSSGLYSLSSVVTVPSSSLGTQTYICNVNHKPSNTKVDKKVEPKSC
On to B2, for which the “a-hIL-4 bioassay IC50, pM)” value in experiment [1] turned out to be 16.5 pM. For the same molecule, in experiment [4], the “a-IL-33 bioassay (WT IL33) IC50 (pM)” value is 12 pM. In addition, the “a-hIL-13 bioassay (IC50, pM)” value in experiment [3] is 7.58 pM.

B3: IL13433-0006 (other)
heavy: EVQLVESGGGLVQPGGSLRLSCAASGFTFSSYAMSWVRQAPGKGLEWVASISSGDTTYYPDSVKGRFTISRDNAKNSLYLQMNSLRAEDTAVYYCARNEGYYFGLTLWGQGTLVTVSSASTKGPSVFPKAPSSKSTSGGTAALGCLVKDYFPEPVTVSWNSGALTSGVHTFPAVLQSSGLYSLSSSVTVPSSSLGTQTYICNVNHKPSNTKVDKKVEPKSCDKTHTCPPCPAPEAAGAPSVFLFPPKPKDTLMISRTPEVTCVVVDVSHEDPEVKFNWYVDGVEVHNAKTKPREEQYNSTYRVVSVLTVLHQDWLNGKEYKCKVSNKALPAPIEKTISKAKGQPREPQVCTLPPSREEMTKNQVSLWCLVKGFYPSDIAVEWESNGQPENNYKTTPPVLDSDGSFFLYSKLTVDKSRWQQGNVFSCSVMHEALHNHYTQKSLSLSPGK
chain 1: DIQMTQSPSSLSASVGDRVTITCKASQNINKHLDWYQQKPGKAPKLLIYFTNNLQTGVPSRFSGSGSGTDFTLTISSLQPEDFATYYCFQYNQGWTFGGGTKVEIKRTVAAPSVFIFPPSDEQLKSGTASVVCLLNNFYPREAKVQWKVDNALQSGNSQESVTEQDSKDSTYSLSSTLTLSKADYEKHKVYACEVTHQGLSSPVTKSFNRGECGGGGSEVTLRESGPALVKPTQTLTLTCTFSGFSLSNFGEGLSWIRQPPGKGLEWLAHIYWDDDKRYNPSLKSRLTISKDTSRNQVVLTMTNMDPVDTATYYCARRETVFYWYFDVWGQGTTVTVSSASTKGPSVFPEAPSSKSTSGGTAALGCLVKDYFPEPVTVSWNSGALTSGVHTFPAVLQSSGLYSLGSVVTVPSSSLGTQTYICNVNHKPSNTKVDKKVEPKSCDKTHTCPPCPAPEAAGAPSVFLFPPKPKDTLMISRTPEVTCVVVDVSHEDPEVKFNWYVDGVEVHNAKTKPREEQYNSTYRVVSVLTVLHQDWLNGKEYKCKVSNKALPAPIEKTISKAKGQPREPQVYTLPPCREEMTKNQVSLSCAVKGFYPSDIAVEWESNGQPENNYKTTPPVLDSDGSFFLVSKLTVDKSRWQQGNVFSCSVMHEALHNHYTQKSLSLSPGK
light 1: B1 light 1 with Q27E, E31H, D32F, D34W, Y36L, M37V, N38H, A54R, P100W, K180D
light 2: B1 light 1
chain 2: B1 chain 2
Take B3: the “a-hIL-4 bioassay IC50, pM)” value in experiment [1] was determined as 10.3 pM. In experiment [4], the “a-IL-33 bioassay (WT IL33) IC50 (pM)” value came out at 112 pM. Also, in experiment [3], the “a-hIL-13 bioassay (IC50, pM)” value is 9.01 pM.

B4: IL13433-0607 (other)
heavy: B3 heavy with S53T, L107Q, Q110R, M429L, N435S
chain 1: B3 chain 1 with K24R, N28P, N30S, N280S, P281T, S285T, M650L, N656S
light 1: DIQMTQSPSSLSASVGDRVTITCRASESVDHFGWSLVHWYQQKPGKAPKLLIYRADSLETGVPSRFSGSGSGTDFTLTISSLQPEDFATYYCQQSNEDPWTFGGGTKVEIKRTVAAPSVFIFPPSDEQLKSGTASVSCLLNNFYPREAKVQWKVDNALQSGNSQESVTEQDSKDSTYSLDSTLTLSKADYEKHKVYACEVTHQGLSSPVTKSFNRGEC
light 2: B1 light 1 with K24R, D32E, N96H, E97K
chain 2: B1 chain 2
With B4, the “a-hIL-4 bioassay IC50, pM)” value in experiment [1] was 66.9 pM. The “a-IL-33 bioassay cys mutant IL33) IC50 (pM)” value in experiment [2] came to 182 pM. Further, the “a-hIL-13 bioassay (IC50, pM)” value in experiment [3] came out at 20.3 pM.
